Measured values taken from patent US20030108554A1 (published 2003).

B1: GIP130c (other)
chain: MRSRGSDTEGSAQKKFPRHTKGHSFQGPKNMKHRQQDKDSPSESDVILPCPKAEKPHSGNGHQAEDLSRDDLLFLLSILEGELQARDEVIGILKAEKMDLALLEAQYGFVTPKKVLEALQRDAFQAKSTPWQEDIYEKPMNELDKVVEKHKESYRRILGQLLVAEKSRRQTILELEEEKRKHKEYMEKSDEFICLLEQECERLKKLIDQEIKSQEEKEQEKEKRVTTLKEELTKLKSFALMVVDEQQRLTAQLTLQRQKIQELTTNAKETHTKLALAEARVQEEEQKATRLEKELQTQTTKFHQDQDTIMAKLTNEDSQNRQLQQKLAALSRQIDELEETNRSLRKAEEELQDIKEKISKGEYGNAGIMAEVEELRKRVLDMEGKDEELIKMEEQCRDLNKRLERETLQSKDFKLEVEKLSKRIMALEKLEDAFNKSKQECYSLKCNLEKERMTTKQLSQELESLKVRIKELEAIESRLEKTEFTLKEDLTKLKTLTVMFVDERKTMSEKLKKTEDKLQAASSQLQVEQNKVTTVTEKLIEETKRALKSKTDVEEKMYSVTKERDDLKNKLKAEEEKGNDLLSRVNMLKNRLQSLEAIEKDFLKNKLNQDSGKSTTALHQENNKIKELSQEVERLKLKLKDMKAIEDDLMKTEDEYETLERRYANERDKAQFLSKELEHVKMELAKYKLAEKTETSHEQWLFKRLQEEEAKSGHLSREVDALKEKIHEYMATEDLICHLQGDHSVLQKKLNQQENRNRDLGREIENLTKELERYRHFSKSLRPSLNGRRISDPQVFSKEVQTEAVDNEPPDYKSLIPLERAVINGQLYEESENQDEDPNDEGSVLSFKCSQSTPCPVNRKLWIPWMKSKEGHLQNGKMQTKPNANFVQPGDLVLSHTPGQPLHIKVTPDHVQNTATLEITSPTTESPHSYTSTAVIPNCGTPKQRITILQNASITPVKSKTSTEDLMNLEQGMSPITMATFARAQTPESCGSLTPERTMSPIQVLAVTGSASSPEQGRSPEPTEISAKHAIFRVSPDRQSSWQFQRSNSNSSSVITTEDNKIHIHLGSPYMQAVASPVRPASPSAPLQDNRTQGLINGALNKTTNKVTSSITITPTATPLPRQSQITVSNIYN
notes: Full length; tested as GAL4 domain fusion in yeast two-hybrid
B2: GIP130a (other)
chain: MRSRGSDTEGSAQKKFPRHTKGHSFQGPKNMKHRQQDKDSPSESDVILPCPKAEKPHSGNGHQAEDLSRDDLLFLLSILEGELQARDEVIGILKAEKMDLALLEAQYGFVTPKKVLEALQRDAFQAKSTPWQEDIYEKPMNELDKVVEKHKESYRRILGQLLVAEKSRRQTILELEEEKRKHKEYMEKSDEFICLLEQECERLKKLIDQEIKSQEEKEQEKEKRVTTLKEELTKLKSFALMVVDEQQRLTAQLTLQRQKIQELTTNAKETHTKLALAEARVQEEEQKATRLEKELQTQTTKFHQDQDTIMAKLTNEDSQNRQLQQKLAALSRQIDELEETNRSLRKAEEELQDIKEKISKGEYGNAGIMAEVEELRKRVLDMEGKDEELIKMEEQCRDLNKRLERETLQSKDFKLEVEKLSKRIMALEKLEDAFNKSKQECYSLKCNLEKERMTTKQLSQELESLKVRIKELEAIESRLEKTEFTLKEDLTKLKTLTVMFVDERKTMSEKLKKTEDKLQAASSQLQVEQNKVTTVTEKLIEETKRALKSKTDVEEKMYSVTKERDDLKNKLKAEEEKGNDLLSRVNMLKNRLQSLEAIEKDFLKNKLNQDSGKSTTALHQENNKIKELSQEVERLKLKLKDMKAIEDDLMKTEDEYETLERRYANERDKAQFLSKELEHVKMELAKYKLAEKTETSHEQWLFKRLQEEEAKSGHLSREVDALKEKIHEYMATEDLICHLQGDHSVLQKKLNQQENRNRDLGREIENLTKELERYRHFSKSLRPSLNGRRISDPQVFSKEVQTEAVDNEPPDYKSLIPLERAVINGQLYEESENQDEDPNDEGSVLSFKCSQSTPCPVNRKLWIPWMKSKEGHLQNGKMQTKPNANFVQPGDLVLSHTPGQPLHIKVTPDHVQNTATLEITSPTTESPHSYTSTAVIPNCGTPKQRITILQNASITPVKSKTSTEDLMNLEQGMSPITMATFARAQTPESCGSLTPERTMSPIQVLAVTGSASSPEQGRSPEPTEISAKHAIFRVSPDRQSSWQFQRSNSNSSSVITTEDNKIHIHLGSPYMQAVASPVRPASPSAPLQDNRTQGLINGALNKTTNKVTSSITITPTATPLPRQSQITVEPLLLPH
notes: as for B1

How the values were obtained:
Test in all cases: yeast two-hybrid
[1] = target: B2
[2] = target: B1
[3] = target: the molecule itself

Binder | binding result [1] | binding result [2] | binding result [3]
GIP130b (other, Full length; tested as GAL4 domain fusion in yeast two-hybrid) MRSRGSDTEGSAQKKFPRHTKGHSFQGPKNMKHRQQDKDSPSESDVILPCPKAEKPHSGNGHQAEDLSRDDLLFLLSILEGELQARDEVIGILKAEKMDLALLEAQYGFVTPKKVLEALQRDAFQAKSTPWQEDIYEKPMNELDKVVEKHKESYRRILGQLLVAEKSHRQTILELEEEKRKHKEYMEKSDEFICLLEQECERLKKLIDQEIKSQEEKEQEKEKRVTTLKEELTKLKSFALMVVDEQQRLTAQLTLQRQKIQELTTNAKETHTKLALAEARVQEEEQKATRLEKELQTQTTKFHQDQDTIMAKLTNEDSQNRQLQQKLAALSRQIDELEETNRSLRKAEEELQDIKEKISKGEYGNAGIMAEVEELRKRVLDMEGKDEELIKMEEQCRDLNKRLERETLQSKDFKLEVEKLSKRIMALEKLEDAFNKSKQECYSLKCNLEKERMTTKQLSQELESLKVRIKELEAIESRLEKTEFTLKEDLTKLKTLTVMFVDERKTMSEKLKKTEDKLQAASSQLQVEQNKVTTVTEKLIEETKRALKSKTDVEEKMYSVTKERDDLKNKLKAEEEKGNDLLSRVNMLKNRLQSLEAIEKDFLKNKLNQDSGKSTTALHQENNKIKELSQEVERLKLKLKDMKAIEDDLMKTEDEYETLERRYANERDKAQFLSKELEHVKMELAKYKLAEKTETSHEQWLFKRLQEEEAKSGHLSREVDALKEKIHEYMATEDLICHLQGDHSVLQKKLNQQENRNRDLGREIENLTKELERYRHFSKSLRPSLNGRRISDPQVFSKEVQTEAVDNEPPDYKSLIPLERAVINGQLYEESENQDEDPNDEGSVLSFKCSQSTPCPVNRKLWIPWMKSKEGHLQNGKMQTKPNANFVQPGDLVLSHTPGQPLHIKVTPDHVQNTATLEITSPTTESPHSYTSTAVIPNCGTPKQRITILQNASITPVKSKTSTEDLMNLEQGMSPITMATFARAQTPESCGSLTPERTMSPIQVLAVTGSASSPEQGRSPEPTEISAKHAIFRVSPDRQSSWQFQRSNSNSSSVITTEDNKIHIHLGSPYMQAVASPVRPASPSAPLQDNRTQGLINGALNKTTNKVTSSITITPTATPLPRQSQITVSNIYN | binds | binds | binds
B1 | binds |  | binds
B2 |  |  | binds
